Measurements: patent publication US20230037552A1 (published 2023)

How the values were obtained:
[1] = biological target: T1, MAGEA1 KVL peptide, threonine substitution at position 3 (L) peptide on HLA-A*02:01 (human); test: cytokine release
T1 peptide: KVTEYVIKV

[2] = biological target: T2, MAGEA1 KVL peptide, threonine substitution at position 5 (Y) peptide on HLA-A*02:01 (human); test: cytokine release
T2 peptide: KVLETVIKV

[3] = biological target: T3, ASTN1 peptide on HLA-A*02:01 (human); test: cytokine release
T3 peptide: KLYGLDWAEL

[4] = biological target: T4, MAGEA1 peptide on HLA-A*02:04 (human); test: cytokine release
T4 peptide: KVLEYVIKV

[5] = biological target: T5, MAGEA1 peptide on HLA-A*02:16 (human); test: cytokine release
T5 peptide: KVLEYVIKV

[6] = biological target: T6, MAGEA1 peptide on HLA-A*02:17 (human); test: cytokine release
T6 peptide: KVLEYVIKV

[7] = biological target: T7, MAGEA1 KVL peptide, threonine substitution at position 1 (K) peptide on HLA-A*02:01 (human); test: cytokine release
T7 peptide: TVLEYVIKV

[8] = biological target: T8, MAGEA1 peptide on HLA-A*02:01 (human); test: multimer staining
T8 peptide: KVLEYVIKV

B1: TCR T15.8-4.3-83 (TCR, V domains shown)
Valpha: AQKVTQAQTEISVVEKEDVTLDCVYETRDTTYYLFWYKQPPSGELVFLIRRNSFDEQNEISGRYSWNFQKSTSSFNFTITASQVVDSAVYFCALSEVASGGSYIPTFGRGTSLIVHP
Vbeta: SQTIHQWPATLVQPVGSPLSLECTVEGTSNPNLYWYRQAAGRGLQLLFYSVGIGQISSEVPQNLSASRPQDRQFILSSKKLLLSDSGFYLCAWSGSGGNQPQHFGDGTRLSIL
[1]
  binding result: no recognition
[2]
  binding result: no recognition
[3]
  binding result: no recognition
[4]
  binding result: recognises
[5]
  binding result: recognises
[6]
  binding result: recognises
[7]
  binding result: no recognition
[8]
  binding result: recognises
